# Assay results as given in patent US20200188477A1, “A MEDICAMENT FOR THE TREATMENT OF DISEASES BY BIOFILM FORMING MICROORGANISMS” (priority 2017, published 2020).
# Biological target: M. tuberculosis PpiB overexpressed in M. smegmatis (Ms_PpiB Tet+) (Mycobacterium tuberculosis) (UniProt P9WHW1)
# Experiment: cell-based or functional assay
# Chain of UniProt P9WHW1 (P9WHW1 whole entry): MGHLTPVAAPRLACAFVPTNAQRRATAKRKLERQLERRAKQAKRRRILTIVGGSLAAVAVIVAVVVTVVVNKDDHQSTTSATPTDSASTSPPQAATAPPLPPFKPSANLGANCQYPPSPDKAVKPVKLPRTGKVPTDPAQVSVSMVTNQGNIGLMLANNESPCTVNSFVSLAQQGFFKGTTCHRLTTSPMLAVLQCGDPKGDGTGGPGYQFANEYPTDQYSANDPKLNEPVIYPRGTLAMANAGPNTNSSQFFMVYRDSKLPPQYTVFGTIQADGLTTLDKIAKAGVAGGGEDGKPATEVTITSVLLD
substance,measurement,value
cyclosporine A (peptide),"biofilm formation (crystal violet assay, absorbance at 550 nm)",> 100 µg/mL
